Sequences and labels used below:
T1: RPA^ΔWH (Rpa1/Rpa2(1-179)/Rpa3), RPA lacking the winged-helix domain of Rpa2 (Pyrococcus abyssi)
T1 chain 1: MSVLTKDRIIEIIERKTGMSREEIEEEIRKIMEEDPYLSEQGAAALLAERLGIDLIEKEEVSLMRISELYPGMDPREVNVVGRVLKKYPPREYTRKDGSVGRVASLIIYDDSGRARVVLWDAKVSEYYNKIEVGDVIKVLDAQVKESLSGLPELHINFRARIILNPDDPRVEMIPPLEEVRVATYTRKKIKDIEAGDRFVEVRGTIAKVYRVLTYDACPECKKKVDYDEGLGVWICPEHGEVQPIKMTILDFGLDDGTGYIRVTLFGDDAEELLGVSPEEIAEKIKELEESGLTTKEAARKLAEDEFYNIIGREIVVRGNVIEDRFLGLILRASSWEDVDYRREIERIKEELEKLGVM
T1 chain 2: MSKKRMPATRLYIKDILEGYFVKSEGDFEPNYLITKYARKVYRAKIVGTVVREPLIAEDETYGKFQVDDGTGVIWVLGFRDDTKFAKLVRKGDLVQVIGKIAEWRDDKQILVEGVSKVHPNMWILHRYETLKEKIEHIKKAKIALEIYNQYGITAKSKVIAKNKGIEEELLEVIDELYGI
T1 chain 3: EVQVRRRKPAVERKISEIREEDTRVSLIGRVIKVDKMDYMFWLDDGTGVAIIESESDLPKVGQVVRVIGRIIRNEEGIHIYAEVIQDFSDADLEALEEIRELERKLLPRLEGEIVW

B1: Histidine-tagged Rpa2^WH (Rpa2 residues 178-268), C-terminal winged-helix domain of P. abyssi Rpa2 (domain or fragment)
chain: MGKHHHHSGHHHTGHHHHSGSHHHTSSSASTGENLYFQGTGGIMMEERSIEEPMEELLEEEIPEEKEENELLEKAKEDILNILRQKRTAISRKYILKKLGDKYDEETIDDAITELLAQGEIYEPETGYYKLL
B2: DNA primase PriSL (PriS-PriL heterodimer) from P. abyssi, in solution (complex, Pyrococcus abyssi)
chain 1: MLLREVTKEERKEFYSNEWNAKQIPDFILQNLDKREFGFDHTGEGPSDRKNSYTDVRDLEDYIKATAPYAVYSSVAFYEKPQEMEGWLGAELVFDIDAKDLPLRRCNHEPGKVCPICLNDAKEIARDTLIVLKEELGFEDVHVVYSGRGYHIRVMDGWALSLDSKSRERILSFISASEIEDHSEFRKMLLERRGWFVLNHGYPRVFRLRFGYFILRVKVEHLINFGIRKNIAKRILDNKETIYEEFVRKGILAAFPDGVGIESLAKLFALSTRFSKAYFDGRVTVDLKRILRLPSTLHSKVGLIAKYIGNNERDVMRFNPFKHAVPKFRRKEVKEEYKRFLEENF
chain 2: MLDPFSEKAKELLKEFGSINDFLNSIPRIVDVEEVIERVKIASDRKLLEGFVDIEDIKDLAQFYALLGALSYSPYGLELELVKKANILLYSERIRREKEIRPEEISLRINKAIEFPIDDLKKIERVFGKLPEYTIHLAEFLDLIPGERLSEYYIYNGNVYLRKEDLIKVWMKAFERNIEKSVNMLYEIRDELPGFFREVLGGIKEVAEQEFGKSGEVKAGTLRPDLFPPCVKNALKGVPQGLRNYAITVLLTSFLSYARICPNPPRRNVRVKDCIDDIRIITDEILPLIIEAANRCSPPLFEDQPNEIKNIWYHLGFGYTANPKLEDSGNSTWYFPPNCDKIRANAPQLCTPDKHCKYVRNPLTYYLRRLYLEGRKNASKGGNERGEKRVLQQ
notes: PriS, catalytic small subunit of the DNA primase, Pyrococcus abyssi; PriL, large subunit of the DNA primase, Pyrococcus abyssi, with its C-terminal 4Fe-4S domain; Analyte in BLI on His-Rpa2^WH and on RPA-ssDNA filaments; also called full-length PriSL; source: E. coli BL21 Star (DE3), polycistronic PriS-PriL, purified (heat 60 °C, HisTrap, heparin, SEC)

Details in all cases: both partners purified
In assay [1] the target is T2, Replicative DNA polymerase PolD (DP1-DP2 heterodimer) from P. abyssi, in solution (Pyrococcus abyssi).
T2 construct: DP1, proofreading small subunit of DNA polymerase D, Pyrococcus abyssi; DP2, polymerization large subunit of DNA polymerase D, Pyrococcus abyssi; also called unlabeled PolD; source: E. coli BL21 Star (DE3), purified (heat 60 °C, HisTrap, heparin, SEC)
Description: BLI; histidine-tagged Rpa2^WH captured on Ni-NTA sensors; PriSL (7.81-500 nM) or PolD (15.62-1000 nM) in solution; steady-state analysis; 25 °C, buffer E with 0.2 mg/ml BSA.

In assay [2] the target is B2. The description is as above.
Assay [3] addresses T1, RPA^ΔWH (Rpa1/Rpa2(1-179)/Rpa3), RPA …. Description: BLI; RPA or RPA^ΔWH nucleoprotein filaments on a 3'-TEG-biotin 50-nt ssDNA held on streptavidin sensors; PriSL (1.56-100 nM) or PolD (15.62-1000 nM) in solution; steady-state analysis; 25 °C, buffer E with 0.2 mg/ml BSA.

On to B1, for which the values for the equilibrium dissociation constant (Kd) in assay [1] and in assay [2] were 98 ± 49 nM and 25 ± 9 nM, respectively.

Turning to B2, the “fold weaker interaction than with wild-type RPA filaments (at 12.5 nM PriSL)” value in assay [3] is 7 fold.

(Values after paper PMC11686378, “Communication between DNA polymerases and Replication Protein A within the archaeal replisome” (Nature Communications, 2024).)
